# According to US12072338B2, “Pharmaceutical peptides for the treatment of inflammatory diseases” (PROTAGONISTS LTD., priority 2007, dated 2024):
# “Also recorded” adds a separate entry of the source. Like-named read-outs stand apart in the source and are kept apart here. Ends that are not written are not given here.
# Key:
# [1] = target: T1, SDF1-β (Homo sapiens, UniProt P48061); test: Micro-array analysis of chemokine binding peptides: SDF1-β
# T1 construct: purchased 300-28b
# Summary of the method: (§1)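 Phage-presented peptides (10^7 pfu/μl in wash buffer) were incubated 1 h at room temperature on blocked slides carrying chemokine spots at 25 or 50 μg/ml. After anti-M13 and Cy3-labelled secondary antibody staining, slides were laser-scanned and spot fluorescence quantified as relative binding.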
# [2] = target: T2, MCP-1 (Homo sapiens, UniProt P13500); test: Micro-array analysis of chemokine binding peptides: MCP-1; conditions: limit = start of the upper 75% of that peptide's response range
# T2 construct: purchased 300-04
# Description: (§2) (1) Printing: Chemokine (CK) solution (in water) was serially diluted with Print Reagent (GenTel BioSurfaces USA) to final concentrations of 50 μg and 25 μg/ml. BSA/BSA-Biotin control solutions (in water) were diluted with Print Reagent to 100 μg/ml. Amplified stock of M13 phage control (M13KEgIII Cloning Vector, New England Biolabs, Cat.No.E8101S) was stored in Tris Buffered Saline (TBS; pH7.5, 4° C.) and diluted with Print Reagent to the working titre (10^8 pfu/μl). An automated spotting robot (16 pin print tool, 0.4 mm head; BioRobotics, UK) was used to print the CK/BSA control/M13 control, 5 repeats per sample (CK 25 μg/ml and 50 μg/ml; BSA 100 μg/ml; M13 20 μl), on PATH Protein Microarray Slides (GenTel, Prod.No. 2-1005/-1025) at […], and 50-70% relative humidity. Printed micro-array slides were stored at Room Temperature (RT) or 4° C. for at least 24 h before use.
# (§3) (2) Blocking: Block Buffer (500 μl/partition; PATHblock, GenTel, Prod.No. 2-1014) was applied to the slide for 1 hour at room temp (RT). After removal of Block Buffer, the slide was air dried for 25 minutes;
# (§4) (3) Phage Presented Peptide Binding: Amplified recombinant phage stock was stored in TBS and diluted with Wash Buffer to working titer (10^7 pfu/μl). Recombinant phage suspension (300 μl) was applied per partition and incubated at RT for 1 hour with gentle agitation.
# (§5) (4) First Washing: The slides were washed twice with Wash Buffer 300 μl/partition).
# (§6) (5) Primary Antibody (Ab) Labeling: The slides were incubated with the Primary Ab (1 mg/ml diluted ×2500 (Wash Reagent), 300 μl; Mouse Anti-M13 monoclonal Ab; Amersham Biosciences, UK; Product Code 27-9420-01) for 45 minutes at RT.
# (§7) (6) Second Washing: The slides were washed twice with Wash Buffer (300 μl/partition).
# (§8) (7) Secondary Ab Labeling: The slides were incubated with Secondary Ab (1.5 mg/ml diluted ×5000 (Wash Reagent), 300 μl; Cy3-conjugated AffiniPure Goat Anti-Mouse IgG; Jackson ImmunoReserch Labs, USA; Product Code 115-165-062).
# (§9) (8) Third Washing: The slides were washed twice with Wash Buffer (300 μl/partition).
# (§10) (9) Rinse: the slides were rinsed twice with Rinse Buffer (PATHrinse, GenTel, Prod.No. 2-1018) then dried well.
# (§11) (10) Scanning: The peptide-bound, labeled slide was scanned (Laser Intensity 80%, Gain 80%, Resolution 10 μm) with a ScanArray Life Scanner (Packard BioChip Technologies, USA).
# (§12) (11) Analysis: Quantitative analysis of micro-array was performed by the SpotReader program of Niles Scientific (USA) and presented as Relative Fluorescence (RF) as a function of CK concentration. Micro-array readout (Cy3 fluorescence) was quantified to determine the relative binding affinities of a CBP for the CKs and by inference, the specificity of the CBP for binding to a CK.
# [3] = target: T3, Fractalkine (Homo sapiens, UniProt P78423); test: Micro-array analysis of chemokine binding peptides: Fractalkine
# T3 construct: purchased 300-31
# T3 sequence (P78423 25-100 limits assumed): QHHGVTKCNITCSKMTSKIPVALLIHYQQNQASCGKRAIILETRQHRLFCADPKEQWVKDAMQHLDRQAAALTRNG
# Summary of the method: as §1
# [4] = tested on: IL-8; test: Micro-array analysis of chemokine binding peptides: IL-8; conditions: limit = start of the upper 75% of that peptide's response range
# Summary of the method: as §1
# [5] = target: T4, Exodus-2 (Homo sapiens, UniProt O00585); test: Micro-array analysis of chemokine binding peptides: Exodus-2
# T4 construct: purchased 300-35
# T4 sequence (O00585 24-134): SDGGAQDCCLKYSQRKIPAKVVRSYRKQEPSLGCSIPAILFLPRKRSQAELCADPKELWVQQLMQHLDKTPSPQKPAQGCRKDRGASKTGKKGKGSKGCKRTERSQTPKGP
# Summary of the method: as §1
# [6] = target: T5, TECK (Homo sapiens, UniProt O15444); test: Micro-array analysis of chemokine binding peptides: TECK
# T5 construct: purchased 300-45
# T5 sequence (O15444 24-150): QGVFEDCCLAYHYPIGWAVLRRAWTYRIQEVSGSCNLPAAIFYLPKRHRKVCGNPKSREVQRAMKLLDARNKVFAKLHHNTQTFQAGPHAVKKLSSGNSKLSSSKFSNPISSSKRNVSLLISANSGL
# Summary of the method: as §1
# [7] = target: T6, MCP-4 (Homo sapiens, UniProt Q99616); test: Micro-array analysis of chemokine binding peptides: MCP-4; conditions: limit = start of the upper 75% of that peptide's response range
# T6 construct: purchased 300-24
# Summary of the method: as §1
# [8] = target: T7, Mig (Homo sapiens, UniProt Q07325); test: Micro-array analysis of chemokine binding peptides: Mig; conditions: limit = start of the upper 75% of that peptide's response range
# T7 construct: purchased 300-26
# T7 sequence (Q07325 23-125): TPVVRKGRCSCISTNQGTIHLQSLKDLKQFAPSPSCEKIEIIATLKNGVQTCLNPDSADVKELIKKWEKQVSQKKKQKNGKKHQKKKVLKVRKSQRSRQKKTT
# Summary of the method: as §1
# [9] = target: T8, Eotaxin (Homo sapiens, UniProt P51671); test: Micro-array analysis of chemokine binding peptides: Eotaxin; conditions: limit = start of the upper 75% of that peptide's response range
# T8 construct: purchased 300-21
# Summary of the method: as §1
# [10] = target: T9, Eotaxin 3 (Homo sapiens, UniProt Q9Y258); test: Micro-array analysis of chemokine binding peptides: Eotaxin 3; conditions: limit = start of the upper 75% of that peptide's response range
# T9 construct: purchased 300-48
# T9 sequence (Q9Y258 24-94): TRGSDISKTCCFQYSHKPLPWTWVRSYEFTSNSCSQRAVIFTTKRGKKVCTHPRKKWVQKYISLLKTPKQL
# Summary of the method: as §1
# [11] = target: T10, MIP3-α (Homo sapiens, UniProt P78556); test: Micro-array analysis of chemokine binding peptides: MIP3-α
# T10 construct: purchased 300-29A
# Description: as §2, with “use. […]” for “use.”
# as §12
# [12] = target: T11, I-309 (Homo sapiens, UniProt P22362); test: Micro-array analysis of chemokine binding peptides: I-309; conditions: limit = start of the upper 75% of that peptide's response range
# T11 construct: purchased 300-37
# T11 sequence (P22362 24-96): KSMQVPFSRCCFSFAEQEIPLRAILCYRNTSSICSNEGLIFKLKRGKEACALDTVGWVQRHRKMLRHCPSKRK
# Summary of the method: as §1
# [13] = target: T12, SDF1-α (Homo sapiens, UniProt P48061); test: Micro-array analysis of chemokine binding peptides: SDF1-α
# T12 construct: purchased 300-28a
# Description: as §2, §3, §4, §5, §6, §7, §8, §9, §10, §11, §12
# [14] = target: T13, RANTES (Homo sapiens, UniProt P13501); test: Micro-array analysis of chemokine binding peptides: RANTES
# T13 construct: purchased 300-06
# T13 sequence (P13501 24-91): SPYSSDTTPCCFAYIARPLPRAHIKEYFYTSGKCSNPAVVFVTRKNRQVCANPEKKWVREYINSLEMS
# Summary of the method: as §1
# [15] = tested on: SDF1; test: Micro-array analysis of chemokine binding peptides: SDF1 (isoform not given)
# Description: as §2, §3, §4, §5, §6, §7, §8, §9, §10, §11, §12
# [16] = tested on: healthy, non-disease-induced rats; test: Effect on healthy, non-disease-induced rats; format: in vivo, rat; conditions: 30 ug/injection IP on 12 consecutive days
# Description: P15 was injected IP (30 ug/injection) on 12 consecutive days to determine if this anti-inflammatory peptide had any effect at a therapeutic dose on healthy, non-disease-induced rats.
# T6 sequence (Q99616 17-98): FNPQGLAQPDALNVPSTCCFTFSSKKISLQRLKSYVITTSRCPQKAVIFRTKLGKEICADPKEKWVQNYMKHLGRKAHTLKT
# T1 sequence (P48061 22-93): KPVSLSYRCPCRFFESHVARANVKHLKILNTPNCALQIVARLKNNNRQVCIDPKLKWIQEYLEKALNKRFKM
# T8 sequence (P51671 24-97): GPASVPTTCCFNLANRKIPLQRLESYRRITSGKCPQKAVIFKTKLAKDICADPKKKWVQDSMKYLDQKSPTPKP
# T2 sequence (P13500 24-99): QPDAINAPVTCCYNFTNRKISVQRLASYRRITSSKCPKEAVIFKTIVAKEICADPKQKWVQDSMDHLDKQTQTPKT
# Sequence of SDF1 (P48061 22-89 limits assumed): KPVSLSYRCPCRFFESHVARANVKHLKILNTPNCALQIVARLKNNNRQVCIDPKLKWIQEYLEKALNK
# T12 sequence (P48061 22-89 limits assumed): as above
# Sequence of IL-8 (P10145 28-99 limits assumed): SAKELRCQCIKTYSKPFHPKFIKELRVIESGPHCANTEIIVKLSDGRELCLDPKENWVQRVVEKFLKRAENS
# T10 sequence (P78556 27-96): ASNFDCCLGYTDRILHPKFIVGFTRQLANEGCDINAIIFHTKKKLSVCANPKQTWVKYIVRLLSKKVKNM
Substance,"binding to SDF1-β, stated in words [1]",binding to MCP-1 with relatively high affinity (Relative Fluorescence Units) [2],"binding to Fractalkine, stated in words [3]","binding to Fractalkine, stated in words ([3]; listed as P5)",binding to IL-8 with relatively high affinity (Relative Fluorescence Units) [4],"binding to Exodus-2, stated in words [5]","binding to TECK, stated in words [6]",binding to MCP-4 with relatively high affinity (Relative Fluorescence Units) [7],binding to Mig with relatively high affinity (Relative Fluorescence Units) [8],binding to Eotaxin with relatively high affinity (Relative Fluorescence Units) [9],binding to Eotaxin 3 with relatively high affinity (Relative Fluorescence Units) [10],"binding to MIP3-α, stated in words [11]",binding to I-309 with relatively high affinity (Relative Fluorescence Units) [12],"binding to SDF1-α, stated in words [13]","binding to RANTES, stated in words [14]",binding to RANTES with relatively high affinity (Relative Fluorescence Units) ([14]; limit = start of the upper 75% of that peptide's response range),"binding to SDF1 (isoform not given), stated in words [15]",physiological or behavioral effect on healthy rats [16]
LFGNDCE [CBP5],bound,"> 2,500 RFU",bound,bound specifically and differentially,"> 2,500 RFU",bound,bound,"> 2,500 RFU","> 2,500 RFU","> 2,500 RFU","> 2,500 RFU",bound,"> 2,500 RFU",bound,bound specifically and differentially,"> 2,500 RFU",bound specifically and differentially,–
"WVFGSGLCK [Ph-p15, WVFGSGLCK]",–,–,–,–,–,–,–,–,–,–,–,–,–,–,–,–,–,no apparent effect; also recorded: no obvious physiological or behavioral effect
